Data from US20160168251A1 (MorphoSys, published 2016).

Experiments:
[1] = molecular target: T1, human NPRA on HEK293 cells, without added ligand (human, UniProt P16066 33-1061); assay: FACS, HEK NPRA cells without ligand
T1 construct: a signal peptide is not delimited; also called HEK NPRA cells; HEK hNPRA cells
T1 sequence: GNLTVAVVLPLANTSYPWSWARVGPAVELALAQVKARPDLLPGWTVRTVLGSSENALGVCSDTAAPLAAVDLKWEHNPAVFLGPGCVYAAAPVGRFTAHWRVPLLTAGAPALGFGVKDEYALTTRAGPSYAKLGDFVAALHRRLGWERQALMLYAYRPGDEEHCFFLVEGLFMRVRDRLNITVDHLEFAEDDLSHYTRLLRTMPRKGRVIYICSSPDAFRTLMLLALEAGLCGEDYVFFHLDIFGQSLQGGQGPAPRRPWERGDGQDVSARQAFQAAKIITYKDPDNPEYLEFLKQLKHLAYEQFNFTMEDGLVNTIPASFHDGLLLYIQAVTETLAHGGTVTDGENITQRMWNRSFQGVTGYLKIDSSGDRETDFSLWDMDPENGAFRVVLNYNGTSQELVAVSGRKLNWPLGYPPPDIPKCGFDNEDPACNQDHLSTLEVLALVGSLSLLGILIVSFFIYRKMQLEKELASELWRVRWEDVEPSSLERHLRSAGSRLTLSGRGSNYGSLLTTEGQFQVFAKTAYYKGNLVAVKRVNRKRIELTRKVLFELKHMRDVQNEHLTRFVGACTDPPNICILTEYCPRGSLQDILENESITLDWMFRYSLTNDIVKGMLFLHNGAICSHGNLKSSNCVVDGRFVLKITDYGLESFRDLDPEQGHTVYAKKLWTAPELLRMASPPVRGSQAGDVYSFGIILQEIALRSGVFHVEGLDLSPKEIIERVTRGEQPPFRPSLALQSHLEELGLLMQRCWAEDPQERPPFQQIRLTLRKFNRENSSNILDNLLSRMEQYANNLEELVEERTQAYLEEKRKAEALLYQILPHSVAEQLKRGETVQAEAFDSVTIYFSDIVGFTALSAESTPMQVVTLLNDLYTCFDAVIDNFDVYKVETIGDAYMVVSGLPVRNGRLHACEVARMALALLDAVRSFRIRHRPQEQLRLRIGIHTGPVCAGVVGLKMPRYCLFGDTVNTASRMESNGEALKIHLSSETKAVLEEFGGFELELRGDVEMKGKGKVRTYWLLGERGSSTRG

[2] = molecular target: T2, human NPRA on HEK293 cells bound to ANP (human, UniProt P01160 124-151); assay: FACS, HEK NPRA cells with ANP
T2 construct: mature; Receptor-ligand complex on cells; also called HEK NPRA cells loaded with ANP; ANP-NPRA complex
T2 sequence: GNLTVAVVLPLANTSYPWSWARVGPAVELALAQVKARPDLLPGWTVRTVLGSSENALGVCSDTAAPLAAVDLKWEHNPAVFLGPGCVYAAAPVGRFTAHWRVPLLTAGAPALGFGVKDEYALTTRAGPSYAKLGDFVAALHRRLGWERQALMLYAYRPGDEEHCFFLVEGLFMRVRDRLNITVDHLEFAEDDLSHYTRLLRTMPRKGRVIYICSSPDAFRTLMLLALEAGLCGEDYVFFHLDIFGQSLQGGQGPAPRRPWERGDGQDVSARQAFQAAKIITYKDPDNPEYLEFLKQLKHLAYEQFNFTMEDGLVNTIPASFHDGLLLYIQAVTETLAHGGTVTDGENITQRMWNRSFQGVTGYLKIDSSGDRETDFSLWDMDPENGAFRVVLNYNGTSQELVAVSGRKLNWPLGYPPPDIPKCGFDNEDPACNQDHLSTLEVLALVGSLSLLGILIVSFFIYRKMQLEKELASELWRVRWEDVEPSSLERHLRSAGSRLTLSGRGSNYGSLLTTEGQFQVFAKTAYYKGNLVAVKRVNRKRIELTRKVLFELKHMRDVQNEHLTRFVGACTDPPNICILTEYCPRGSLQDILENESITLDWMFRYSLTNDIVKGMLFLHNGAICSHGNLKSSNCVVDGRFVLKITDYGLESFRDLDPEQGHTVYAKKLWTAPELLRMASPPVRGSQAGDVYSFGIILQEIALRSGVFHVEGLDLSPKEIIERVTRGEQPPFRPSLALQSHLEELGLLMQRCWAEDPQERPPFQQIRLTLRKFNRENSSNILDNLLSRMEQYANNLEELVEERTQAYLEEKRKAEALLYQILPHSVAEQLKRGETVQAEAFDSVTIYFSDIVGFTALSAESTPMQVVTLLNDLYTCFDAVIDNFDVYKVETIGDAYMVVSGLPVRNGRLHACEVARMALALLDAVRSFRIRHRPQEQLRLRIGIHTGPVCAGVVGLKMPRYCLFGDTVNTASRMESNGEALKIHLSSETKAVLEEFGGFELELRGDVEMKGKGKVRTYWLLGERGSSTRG
T2 sequence (peptide): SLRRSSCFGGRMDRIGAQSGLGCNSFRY

[3] = molecular target: T3, human NPRA on HEK293 cells bound to BNP (human, UniProt P16860 103-134); assay: cell-based or functional assay
T3 sequence: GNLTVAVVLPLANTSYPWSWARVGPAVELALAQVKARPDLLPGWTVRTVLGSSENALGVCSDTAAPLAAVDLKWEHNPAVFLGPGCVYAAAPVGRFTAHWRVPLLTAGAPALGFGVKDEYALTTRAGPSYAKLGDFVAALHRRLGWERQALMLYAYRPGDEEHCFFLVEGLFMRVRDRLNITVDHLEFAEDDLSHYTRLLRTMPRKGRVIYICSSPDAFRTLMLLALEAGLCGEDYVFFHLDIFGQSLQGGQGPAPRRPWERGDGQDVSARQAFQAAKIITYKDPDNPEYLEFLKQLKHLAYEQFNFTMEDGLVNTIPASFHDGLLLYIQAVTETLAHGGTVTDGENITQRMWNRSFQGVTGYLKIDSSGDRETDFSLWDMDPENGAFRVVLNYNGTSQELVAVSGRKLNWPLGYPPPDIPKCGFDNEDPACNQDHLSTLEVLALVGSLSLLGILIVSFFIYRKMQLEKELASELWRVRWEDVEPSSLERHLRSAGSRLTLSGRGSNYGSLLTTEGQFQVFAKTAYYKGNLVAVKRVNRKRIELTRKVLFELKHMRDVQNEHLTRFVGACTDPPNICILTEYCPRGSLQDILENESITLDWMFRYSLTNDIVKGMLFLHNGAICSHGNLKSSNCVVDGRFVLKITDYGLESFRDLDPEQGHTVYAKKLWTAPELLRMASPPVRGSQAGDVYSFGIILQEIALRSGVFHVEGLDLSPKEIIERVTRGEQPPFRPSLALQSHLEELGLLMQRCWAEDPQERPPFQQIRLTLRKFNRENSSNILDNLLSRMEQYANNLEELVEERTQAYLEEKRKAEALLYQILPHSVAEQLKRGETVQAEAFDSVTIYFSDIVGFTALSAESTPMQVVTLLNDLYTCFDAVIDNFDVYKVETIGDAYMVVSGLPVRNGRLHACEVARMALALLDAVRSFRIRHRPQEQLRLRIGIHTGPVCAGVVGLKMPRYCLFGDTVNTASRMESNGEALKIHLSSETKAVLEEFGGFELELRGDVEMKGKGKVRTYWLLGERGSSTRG
T3 sequence (peptide): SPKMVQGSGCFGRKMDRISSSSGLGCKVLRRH

[4] = molecular target: T2, human NPRA on HEK293 cells bound to ANP; assay: cell-based or functional assay
[5] = molecular target: T3, human NPRA on HEK293 cells bound to BNP; assay: FACS titration on BNP bound HEK NPRA cells; BNP bound HEK NPRA cells
[6] = molecular target: T4, atrial natriuretic peptide (ANP), free (UniProt P01160 124-151, 125I label in the radioligand assays of Example 10); assay: FACS competition: Fab pre-incubated with free ANP, then HEK NPRA cells loaded with 100 nM ANP
T4 construct: mature; also called free ANP
T4 peptide (looked up): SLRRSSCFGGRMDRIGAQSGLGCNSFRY

[7] = molecular target: T2, human NPRA on HEK293 cells bound to ANP; assay: FACS titration on ANP bound HEK NPRA cells; ANP bound HEK NPRA cells

B1: 5064 Fab (Fab, V domains shown)
VH: QVQLQQSGPGLVKPSQTLSLTCAISGDSVSSRSASWSWIRQSPGRGLEWLGRIYYRSKWYNDYAVSVKSRITINPDTSKNQFSLQLNSVTPEDTAVYYCARMDVPSFRYFDVWGQGTLVTVSS
VL: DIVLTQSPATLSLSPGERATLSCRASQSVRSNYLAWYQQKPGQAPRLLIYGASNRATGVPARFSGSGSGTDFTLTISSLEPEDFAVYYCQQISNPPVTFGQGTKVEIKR
With B1 the binding result [1] was “no binding (tested: 20 µg/ml)”, the “EC50 (read off the curve)” value [2] was roughly 100 nM and the “fold decrease of the EC50 of BNP (cGMP, 400 nM Fab)” value [3] was 2 fold. For the same binder, the “EC50 of ANP, cGMP production in HEK NPRA cells, with 400 nM Fab” value [4] was 1 nM, the EC50 [5] was no less than 300 nM and the binding result [6] was “no binding (tested: 10000 nM)”. For the same binder, the EC50 [7] was no less than 100 nM.
